These results are taken from US20250332297A1, “DLL3-SPECIFIC BINDING CONSTRUCTS AND THEIR USE IN RADIOTHERAPY” (MOLECULAR PARTNERS AG, priority 2024, published 2025).

Positions count from the first letter of the chain named.

Assay [1] deals with T1, Human DLL3 expressed on cells (HEK293T-hDLL3, NCI-H82, SHP-77, MC38-hDLL3) (human, UniProt Q9NYJ7 27-618).
T1 construct: also called DLL3 endogenously expressed on human cells
T1 sequence: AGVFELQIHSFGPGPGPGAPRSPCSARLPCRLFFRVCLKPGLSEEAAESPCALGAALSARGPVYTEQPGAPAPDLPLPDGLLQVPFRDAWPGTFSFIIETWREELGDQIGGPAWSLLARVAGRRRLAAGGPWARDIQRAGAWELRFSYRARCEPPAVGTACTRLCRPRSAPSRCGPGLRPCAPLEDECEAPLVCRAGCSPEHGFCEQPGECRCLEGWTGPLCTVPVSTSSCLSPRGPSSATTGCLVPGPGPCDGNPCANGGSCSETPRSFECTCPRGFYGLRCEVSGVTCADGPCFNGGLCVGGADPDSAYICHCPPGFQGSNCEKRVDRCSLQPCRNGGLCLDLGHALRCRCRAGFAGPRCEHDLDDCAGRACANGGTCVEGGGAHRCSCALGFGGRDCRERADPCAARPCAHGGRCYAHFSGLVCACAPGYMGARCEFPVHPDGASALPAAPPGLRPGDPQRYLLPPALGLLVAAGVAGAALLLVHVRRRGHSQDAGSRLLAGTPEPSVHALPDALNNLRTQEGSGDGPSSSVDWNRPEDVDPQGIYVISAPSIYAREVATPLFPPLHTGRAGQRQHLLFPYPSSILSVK
Briefly: flow cytometry titration on HEK293T-hDLL3 cells, with HSA. As to the method: (§1) Cell binding titration assays were performed for selected His-tagged single domain (1 D) and two domain (2D) designed ankyrin repeat proteins to determine binding to human DLL3 expressed on HEK293T-huDLL3 cells in absence and presence of human serum albumin. […] HEK293T-hDLL3 cells are HEK293T cells that were stably transfected to express human DLL3 on their surface.
(§2) In brief, 1×10⁵ cells/well were resuspended in 100 μl DARPin dilution (500 nM, 1:5 serial diluted) and incubated for 1 h at 4° C. Cells were washed twice with PBS and resuspended in 100 μl anti-DARPin antibody (rabbit anti-DARPin 1.4.8) and LIVE/DEAD fixable cell stain (1:1000, Thermo Fisher #L34957). This step was performed in absence and presence of […] Human Serum Albumin (CSL Behring #150570). After incubation and washing, cells were incubated with detection antibody for 30 minutes (Goat […] IgG (H+L), AF647, Thermo Fisher #21445). Cells were fixed (Paraformaldehyde Solution, LucernaChem) and acquired at Attune N×T (Thermo Life Technologies). Raw fcs files were exported and analyzed using FlowJo software. MFI values of live AF647-positive cells were exported from FlowJo and plotted using GraphPad Prism software.
For orientation: In flow cytometry, cells or beads pass a laser one at a time.

Assay [2] concerns the target T1, Human DLL3 expressed on cells …. As to the kind of experiment: flow cytometry titration on HEK293T-hDLL3 cells, without HSA. As to the method: as §1, §2
The target in another assay is T2, human serum albumin (human, UniProt P02768 25-609).
T2 construct: also called HSA
As to the kind of experiment: SPR (Bruker Sierra SPR-32), HSA on chip, DARPin as analyte, 1:1 Langmuir fit. As to the method: (§3) Similarly, a SPR assay was used to determine the binding kinetics to human or mouse serum albumin. […] All analytes (3-fold dilution ranging from 1000-12.35 nM) were injected in succession for 240 s (25 μl/min) and dissociation was recorded for 600 s (25 μl/min).

In the next assay the target is T3, mouse serum albumin (mouse, UniProt P07724 25-608).
T3 construct: also called MSA
As to the kind of experiment: SPR (Bruker Sierra SPR-32), MSA on chip, DARPin as analyte, 1:1 Langmuir fit. The procedure:
as §3

Assay [3] deals with T4, hDLL3 ECD-Avi-Fckih (biotinylated extracellular domain of human DLL3, residues 27 to 466, Avi-tag, 3C site, … (human, UniProt Q9NYJ7 27-466, biotinylated at the Avi-tag)).
T4 construct: The make-up of the second Fc chain of the knob-into-hole pair is not described; also called bio-DLL3; recombinant human DLL3; not shown: Avi-tag, 3C protease recognition site and Fc knob into hole
T4 sequence: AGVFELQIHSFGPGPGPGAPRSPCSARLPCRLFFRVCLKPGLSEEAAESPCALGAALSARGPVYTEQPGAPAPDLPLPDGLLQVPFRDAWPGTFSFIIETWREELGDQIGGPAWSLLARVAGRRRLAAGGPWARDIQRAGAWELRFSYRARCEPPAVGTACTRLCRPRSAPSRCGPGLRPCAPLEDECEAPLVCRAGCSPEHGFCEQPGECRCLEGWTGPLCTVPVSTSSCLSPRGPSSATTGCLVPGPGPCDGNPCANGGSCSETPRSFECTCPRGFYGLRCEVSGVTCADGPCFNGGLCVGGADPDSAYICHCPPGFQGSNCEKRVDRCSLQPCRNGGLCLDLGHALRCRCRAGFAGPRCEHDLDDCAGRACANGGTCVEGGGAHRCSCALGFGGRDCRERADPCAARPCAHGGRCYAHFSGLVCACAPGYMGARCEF
Briefly: SPR (ProteOn), biotinylated hDLL3 ECD-Avi-Fckih on chip, DARPin as analyte, 1:1 Langmuir fit. The procedure: Kinetic binding parameters and binding affinities of two domain (2D) ankyrin repeat proteins comprising an ankyrin repeat domain with binding specificity for DLL3 and an ankyrin repeat domain with binding specificity for serum albumin were determined by surface plasmon resonance (SPR) multi-trace analysis.
In brief, a SPR assay was used to determine the binding kinetics to the target human DLL3. The data were generated using BioRad ProteOn instrument in SPR running buffer (PBS, pH 7.4 containing 0.005% Tween 20®). […] The chip was coated with biotinylated target (bio-DLL3) to reach a signal intensity of 1780 RU. […] Each injection was followed by a regeneration step with 16 mM H₃PO₄ for 18 s. […] The bio-DLL3 target used was as described in U.S. 63/550,951, i.e. the extracellular domain (ECD) of human DLL3 protein (Q9NYJ7, Gene ID: 10683, residues 27 to 466; purchased from Evitria) linked via an Avi-tag (for site-directed biotinylation), followed by a 3C protease recognition site, to a Fc knob into hole (hDLL3 ECD-Avi-Fcₖᵢₕ).

T3 sequence (P07724 25-608 limits assumed): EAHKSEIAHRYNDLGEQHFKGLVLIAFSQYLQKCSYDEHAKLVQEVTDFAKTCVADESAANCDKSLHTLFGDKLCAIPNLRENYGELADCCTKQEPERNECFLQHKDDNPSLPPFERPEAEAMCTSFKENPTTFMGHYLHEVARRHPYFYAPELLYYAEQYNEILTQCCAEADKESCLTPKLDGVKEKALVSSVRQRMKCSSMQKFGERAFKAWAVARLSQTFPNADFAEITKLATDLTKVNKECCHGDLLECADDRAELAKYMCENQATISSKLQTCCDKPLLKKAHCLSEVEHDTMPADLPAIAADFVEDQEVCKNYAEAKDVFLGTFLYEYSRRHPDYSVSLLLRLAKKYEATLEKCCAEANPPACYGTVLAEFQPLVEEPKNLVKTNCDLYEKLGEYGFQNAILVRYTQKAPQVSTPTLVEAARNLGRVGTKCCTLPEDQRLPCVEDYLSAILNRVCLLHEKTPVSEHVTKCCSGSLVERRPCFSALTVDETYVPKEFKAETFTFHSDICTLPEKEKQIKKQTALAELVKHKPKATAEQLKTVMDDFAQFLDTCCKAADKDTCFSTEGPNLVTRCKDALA

B1: MAM160 (two domain ankyrin repeat protein, N-terminal His6-TEV tag) (designed binder)
chain: MRGSHHHHHHENLYFQDLGKKLLEAARAGQDDEVRELLKAGADVNAKDYFSHTPLHLAARNGHLKIVEVLLKAGADVNAKDFAGKTPLHLAADAGHLEIVEVLLKAGADVNAQDIFGKTPADIAADAGHEDIAEVLQKAAGSPTPTPTTPTPTPTTPTPTPTGSDLGTKLLSAAADGQDDEVRELLQAGADVNAKDLFGYTPLHLAAWRGHLEIVEVLLEAGADVNAKDAAGLTPLHLAAWFGHLEIVEVLLEAGADVNAQDVQGVTPADLAAKEGHEDIAEVLQQAA
notes: also called 2D DARPin
Broadly, the EC50 is the concentration that produces a half-maximal response. A lower EC50 goes with higher potency in that assay. The Kd is the constant that tells how readily two partners part at equilibrium. Read a high Kd as lower affinity. For orientation: koff means the rate constant with which the complex falls apart. A higher koff goes with a short-lived complex. By kon is commonly meant the second-order rate constant of association. A lower kon goes with slower complex formation. Consider B1, for which the concentration giving a half-maximal response (EC50) in assay [1] came out at 36.6 nM; in assay [2] it was 18.9 nM. Further, the results for the Kd (with human serum albumin; in the assay with mouse serum albumin; in assay [3]) were 95.9 nM, 336 nM and 1.99 nM, respectively. Further, the koff is 0.0105 s⁻¹ with human serum albumin, 0.0271 s⁻¹ in the assay with mouse serum albumin and 2.01e-05 s⁻¹ in assay [3]. Besides, the values for the association rate constant (kon) (with human serum albumin; with mouse serum albumin; in assay [3]) were 110000 M⁻¹ s⁻¹, 80400 M⁻¹ s⁻¹ and 10100 M⁻¹ s⁻¹, respectively.

B2: MAM088 (single domain ankyrin repeat protein, His-tagged) (designed binder)
chain: DLGKKLLAAAREGQDDEVRELLKAGADVNAKDIWGQTPLHIAAWFGHLEIVEVLLKAGADVNAKDQTGHTPLHLAAKFGHLEIVEVLLKAGADVNAQDLLGRTPADLAAEEGHEDIAEVLQKAA
notes: also called 1D DARPin; not shown: His-tag
Take B2: the figures for the concentration for a half-maximal effect (EC50) in assay [1] and in assay [2] were 5.1 nM and 5 nM, respectively.

B3: Non-binding DARPin control comprising SEQ ID NO: 21 (designed binder)
chain: DLGKKLLEAARAGQDDEVRELLKAGADVNAKDKDGYTPLHLAAREGHLEIVEVLLKAGADVNAKDKDGYTPLHLAAREGHLEIVEVLLKAGADVNAQDKSGKTPADLAADAGHEDIAEVLQKAA
notes: Negative control on HEK293T-hDLL3 cells
Take B3: in assay [2], the binding result is on record as “no binding (tested: 500 nM)”.

B4: MAM112 (single domain ankyrin repeat protein, His-tagged) (designed binder)
chain: DLGKKLLAAAADGQDDEVRELLQAGADVNAKDLFGYTPLHLAAWRGHLEIVEVLLEAGADVNAKDAAGETPLHLAAWFGHLEIVEVLLEAGADVNAQDVQGKTPADLAAKEGHEDIAEVLQQAA
notes: as for B2
For the molecule B4, the EC50 is 4.6 nM in assay [1] and 4.2 nM in assay [2].

B5: MAM120 (single domain ankyrin repeat protein, His-tagged) (designed binder)
chain: B4 chain with K4T, A8S, E69L, K102V
notes: as for B2
With B5, the EC50 amounted to 8 nM in assay [1] and 7 nM in assay [2].

B6: MAM093 (single domain ankyrin repeat protein, His-tagged) (designed binder)
chain: B4 chain with D12Q, Q23K, D27N, E56K, E89K, V99L, Q122K
notes: as for B2
For B6, the EC50 in assay [1] was 5.5 nM; in assay [2] it was 4.9 nM.
